This is an account of results in US10613105.

Some results are limits rather than exact numbers.

The target of the experiment is TLR2/6 receptor expressed on NIH 3T3 TLR2/6 receptor cells (whole-cell sensor elements, printed or pipetted). Description: fluorescence of rhodamine-labeled pyrogen bound to printed or pipetted receptor cells on a membrane, against the control cell line and membrane; after drying, ethanol fixing or storage at 4° C.

Take “Pam3CSK4 with rhodamine labeling (peptide)”: the delta of the fluorescence intensity is above 3000 a.u.
